The values below come from article doi:10.1101/2025.02.17.638590.

For the assay, the target named is free tubulin (bovine) (UniProt Q6B856). As to the kind of experiment: tubulin recruitment assay.
Sequence of UniProt Q6B856 (Q6B856 whole entry, looked up): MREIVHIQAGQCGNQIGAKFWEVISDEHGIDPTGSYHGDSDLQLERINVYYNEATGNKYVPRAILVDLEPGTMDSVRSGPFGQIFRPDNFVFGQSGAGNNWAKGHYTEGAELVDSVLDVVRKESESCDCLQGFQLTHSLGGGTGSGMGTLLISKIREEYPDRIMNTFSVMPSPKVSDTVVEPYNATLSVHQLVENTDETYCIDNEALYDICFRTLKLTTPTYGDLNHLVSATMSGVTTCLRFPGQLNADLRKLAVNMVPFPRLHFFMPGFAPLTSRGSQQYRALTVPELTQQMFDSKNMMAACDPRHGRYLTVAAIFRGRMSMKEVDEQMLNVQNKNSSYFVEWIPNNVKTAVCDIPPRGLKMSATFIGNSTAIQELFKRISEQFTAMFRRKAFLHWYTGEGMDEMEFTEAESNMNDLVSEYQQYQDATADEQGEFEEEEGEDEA

The substance “MAP6d1-Δ2-35 (from UniProt Q14BB9 1-191) (natural protein)” yielded a percent of stabilised microtubules with recruited free tubulin of 9%.
“MAP6d1 (from UniProt Q14BB9 1-191) (natural protein)”: the percent of pre-polymerised microtubules with recruited free tubulin was 57%.
